Publication PMC5557676, “Structural Characterization of Acidic M17 Leucine Aminopeptidases from the TriTryps and Evaluation of Their Role in Nutrient Starvation in Trypanosoma brucei” (mSphere, 2017)
Several values for one entry are separate records, joined by “and”; a condition that tells them apart may be missing. Identical values can stand only once.

Legend:
TbLAP-A [1] = target: T1, TbLAP-A (Trypanosoma brucei, UniProt Q385B0); test: native gel zymography, AMC fluorescence; assay type: biochemical; conditions: 7.5 µM substrate, 50 mM Tris pH 8.0, 100 mM KCl, 1 mM MnCl2, 37 °C, 10 min
T1 construct: gene Tb11.02.4440; full length, E. coli BL21(DE3); N-terminal His6 tag, HRV 3C-cleaved or with a noncleavable His tag; homohexamer; N-terminal domain aa 2-197, C-terminal domain aa 215-521
T1 sequence (Q385B0 1-521): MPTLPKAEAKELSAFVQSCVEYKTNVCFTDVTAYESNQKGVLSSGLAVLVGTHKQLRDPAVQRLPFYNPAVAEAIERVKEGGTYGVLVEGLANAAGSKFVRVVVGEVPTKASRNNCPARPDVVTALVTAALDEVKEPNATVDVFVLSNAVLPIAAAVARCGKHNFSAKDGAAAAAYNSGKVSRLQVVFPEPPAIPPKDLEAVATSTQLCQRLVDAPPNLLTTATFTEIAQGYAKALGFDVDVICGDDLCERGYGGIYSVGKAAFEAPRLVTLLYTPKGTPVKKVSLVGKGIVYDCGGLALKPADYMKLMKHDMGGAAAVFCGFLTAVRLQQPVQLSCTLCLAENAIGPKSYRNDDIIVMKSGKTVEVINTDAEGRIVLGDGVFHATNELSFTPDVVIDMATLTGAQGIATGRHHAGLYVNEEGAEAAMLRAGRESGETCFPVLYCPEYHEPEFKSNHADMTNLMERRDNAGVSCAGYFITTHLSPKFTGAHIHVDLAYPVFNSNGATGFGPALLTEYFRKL

TbLAP-A [2] = target: T1, TbLAP-A; test: X-ray crystal structure; assay type: binding; conditions: Mn2+ in both metal sites, active site
[3] = target: Leishmania major acidic M17 leucine aminopeptidase (LmLAP-A) (Leishmania major (Friedlin)); test: crystal structure; crystals grown at 20°C by sitting- and hanging-drop vapor diffusion; apo, holo (Mn2+) and inhibitor-bound forms; homohexamer in the crystal
[4] = target: Leishmania major acidic M17 leucine aminopeptidase (LmLAP-A) (Leishmania major (Friedlin)); test: SEC-MALS; SEC-MALLS on Superdex 200 10/300; 10 mM Tris pH 8.0, 200 mM NaCl, 1 mM DTT; 0.1, 0.5, 1.0 and 3.0 mg/ml (TbLAP-A also 5 mg/ml), incubated at least 3 h at room temperature
[5] = target: Trypanosoma brucei acidic M17 leucine aminopeptidase (TbLAP-A) (Trypanosoma brucei (Lister427)); test: as above
[6] = target: Trypanosoma brucei acidic M17 leucine aminopeptidase (TbLAP-A) (Trypanosoma brucei (Lister427)); test: crystal structure; crystals grown at 20°C by sitting- and hanging-drop vapor diffusion; apo, holo (Mn2+) and inhibitor-bound forms; homohexamer in the crystal
[7] = target: Trypanosoma brucei acidic M17 leucine aminopeptidase (TbLAP-A) (Trypanosoma brucei (Lister427)); test: SEC-MALS; SEC-MALLS on Superdex 200 10/300; 10 mM Tris pH 8.0, 200 mM NaCl, 1 mM DTT; 0.1, 0.5, 1.0 and 3.0 mg/ml (TbLAP-A also 5 mg/ml), incubated at least 3 h at room temperature; remark: listed apart in the source
[8] = target: the molecule itself; test: crystal structure; crystals grown at 20°C by sitting- and hanging-drop vapor diffusion; apo, holo (Mn2+) and inhibitor-bound forms; homohexamer in the crystal
[9] = target: the molecule itself; test: SEC-MALS; SEC-MALLS on Superdex 200 10/300; 10 mM Tris pH 8.0, 200 mM NaCl, 1 mM DTT; 0.1, 0.5, 1.0 and 3.0 mg/ml (TbLAP-A also 5 mg/ml), incubated at least 3 h at room temperature

In the case of `Cc1cc(=O)oc2cc(NC(=O)[C@@H](N)CC(C)C)ccc12` [Leu-AMC], the “native gel zymography, AMC fluorescence” value (TbLAP-A [1]) is reported as “All three LAP-As were active against Leu-AMC”.

With `CCCCC[C@H](CC(=O)NO)C(=O)N[C@H](C(=O)N1CCC[C@H]1CO)C(C)C` [actinonin] the X-ray crystal structure (TbLAP-A [2]; less than full occupancy, six chains) was “The TbLAP-A--actinonin complex had six molecules in the asymmetric unit”.

With `CC(C)C[C@H](NC(=O)[C@@H](O)[C@H](N)Cc1ccccc1)C(=O)O` [bestatin] the X-ray crystal structure (TbLAP-A [2]; bicarbonate bound, 12 chains) was “TbLAP-A was cocrystallized with the inhibitor bestatin”.

With “Leishmania major acidic M17 leucine aminopeptidase (LmLAP-A) (enzyme)” the stoichiometry N [3] was 6 and the stoichiometry N [4] was 6 and 3.

For “Trypanosoma brucei acidic M17 leucine aminopeptidase (TbLAP-A) (enzyme)”, the stoichiometry N [5] was 6, the stoichiometry N [6] was 6 and the stoichiometry N [7] was 3.

B1: Trypanosoma cruzi acidic M17 leucine aminopeptidase (TcLAP-A) (enzyme)
chain: MNRPPATDSGASEFVRSCVNFKTNVEFTDVDAYKKTHTAGLASTFVVILGTHAQLREDALKELPFYCPAVAEAIQRVKKGETYAVLAEGVKNEANERFVRVLVGEVPSEASRTNCSARPDVVVSLLSAALEEIKGPETKVDVFVCSTAALAIAVAAARSAKRNFTAKEGLAARGYCDNCVRLTVVFPTAPNPSPSELVVVATSTQLCQRLVDAPTNLLNTATFAEVAQSYAKELGCAVDVICGEELRERGYGGIYSVGKCAAEAPRLVTLSYKPKDETRKKVALVGKGIVYDSGGLSLKPTNFMTGMKRDMGGAAAVFCGFLTAVRLQMPIELSCTLCLAENAIGPDAYRNDDILTLKSGKTVEVNNTDAEGRLVLGDGVFHATHEISFKPDVLVDMATLTGAQGIATGHRHAGIFVNDEEEELSFLKAGRVSGETCFPVLYCPEYHVTEFRSPVADMRNSVKQVNNASVSCAGHFVANHLSPDFKGKHIHVDMAFPAFENDKATGFGPALLMEYLRNLR
With B1 the “stoichiometry N” value [8] was 6 and the “stoichiometry N” value [9] was 3.
